Test system: intracellular proteome of ENR+CD and ENR organoids
Assay: LC-MS/MS TMT proteomics of ENR+CD versus ENR organoids
Format: cell-based, C57BL/6 mice
Settings: for Average logFC: ENR+CD versus ENR organoids, sample pairs in aggregate (n=4, 2 technical replicates from two biological donors); for M1-1 Log2 Median Normalized / M1-2 Log2 Median Normalized / M2-1 Log2 Median Normalized / M2-2 Log2 Median Normalized: protein abundance ratio ENR+CD versus ENR organoids, LC-MS/MS TMT proteomics; for M1-1 Log2 Median Normalized: sample pair M1-1; for M1-2 Log2 Median Normalized: sample pair M1-2; for M2-1 Log2 Median Normalized: sample pair M2-1; for M2-2 Log2 Median Normalized: sample pair M2-2; for change: up = enriched in ENR+CD, down = enriched in ENR, FDR<0.05 and log fold change cut-off

Molecule	Average logFC	M1-1 Log2 Median Normalized	M1-2 Log2 Median Normalized	M2-1 Log2 Median Normalized	M2-2 Log2 Median Normalized	change
Q921X9 (protein, UniProt Q921X9 1-517, looked up, full-length) MARAWGLLLAIGVVLPTWLSSTKVSSLIERISDPKDLKKLLRTRNNVLVLYSESEVAAESHLKLLSTVAQAVKGQGTVCWVDCGDAESRKLCKKMKVDLSPKDKKIELFHYQDGAFHMQYDRAVTLKSIVAFLKDPKGPPLWEEDPGAKDVVHIDSEKDFRRLLKREEKPLLMMFYAPWCSMCKRIMPHFQKAATQVRGHIVLAGMNVYPSEFENIKEEYNVRGYPTICYFEKGRFLFPYENYGSTAEDIVEWLKNPLPPQPQVPETPWADEGGSVYHLTDEDFDQFVKEHSSVLVMFHAPWCGHCKKMKPEFESAAEVLHGDAESSGVLAAVDATVNEALAGRFHISAFPTLKYFKNGEQQAVPALRTKKKFIEWMQNPEAPPPPEPTWEEQQTSVLHLVGDNFRDTLKKKKHTLVMFYAPWCPHCKKVIPHFTATADAFKEDRKIACAAVDCVKDKNQDLCQQEAVKAYPTFHYYHYGKLVEKYESDRTELGFTSFIRTLREGDLKRLEKRREEL	1.302	1.535	1.138	1.0115	1.523	up
Q99M54 (protein, UniProt Q99M54 1-266, looked up, full-length) MGSTQSVSGTPARPLPRNKQVARVADPRSPSAGIQRTPIQVESSPQPSLPAEQLNGLKQAQDPDPRSPTLGIARTPMKISGPDPQCSLVKELSEVLETEASESISSPELALPRETPLFYDLDLSSDPQLSPEDQLLPWSQAELDPKQVFTKEEAKQSAETIAASQNSDKPSRDPETPQSSGSKRSRRKANSKVLGRSPLTILQDDNSPGTLTLRQGKRPSALSENVKDLKEGVVLGTGRFLKAGGGAREPNQDHDKENQHFALLES	–	−1.383	−1.488	−0.4185	−1.548	down
Q99PG0 (protein, UniProt Q99PG0 1-398, looked up, full-length) MGKTISLLISVVLVAYYLYIPLPDAIEEPWKVVWETAFVKIGTDLASFGELLGISHFMETIQLLMSFQEVPPTSDEHVTVMETAFDSVPVRIYIPKRKSMALRRGLFYIHGGGWCLGSAAHFSYDTLSRWTAHKLDAVVVSTDYGLAPKHHFPRQFEDVYRSLRWFLQEDVLEKYGVDPRRVGVSGDSAGGNLAAAVTQQLIQDPDVKIKLKVQALIYPALQALDTNVPSQQEGSHFPVLTRSLMVRFWSEYFTTDRGLEKAMLLNQHVPMESSHLLQFVNWSSLLPERYKKSPVYKNPTPGSSELAQKYPGFIDVKACPLLANDNILHHLPKTYIITCQYDVLRDDGLMYVKRLQNVGVHVTHHHVEDGFHGTFSFPGLKLSERMKNQYLSWLIKNL	–	−1.606	−1.392	−2.1105	−1.558	down
Q921T2 (protein, UniProt Q921T2 1-595, looked up, full-length) MAGERWQAEGPGEGWAIYVTPRAPIREGRRRLDPRNGDSSDAPAYGAHPSRRGRREVRFSEEPAEVYGDFEPRAAKERSPGGRRTPPEKFRPASAGEEVRESAYNLRSRPRRQRRAQEAEEMKTRRSARLEQHSQQPQLSPATSGRGLRDSPSSSEDREEDEPSSRPVTSQTASKKTLRTPEASVMNEDPISNLCRPPLRSPRLDSTYQTNGNTKTNEREATIVQQVNFFEEGETEDDLESSYSDITIRARSSDSLESRDEATPAAGNHPDSLRGLPHNQDFPAHENQPLLLTSGCQENPQEWVDRAVRMRSRMAYNNIQKSNFGNQSPSTSRPQSAIHHPNEPSVKIKWWLLGLVAILAVGLFWFFHTPAVETTAVQEFQNQMKQLQSKYQSQNEKLWKRGTTFLEKHLNSSLPRPQPAILLLTAAQDAAEVLKCLSEQIADAYSSFRSVRAIRIDGAGKAAQDSDLVKHEVDQELTDGFKNGQNAAVVHRFESLPAGSTLIFYKYCDHENAAFKDVALVLTVLLEEKTLEASLGLKEIEEKVRDFLKVKFTSSSTASSYNHMDPDKLNGLWSRISHLVLPVQPENTLKAGSCL	1.217	1.233	1.176	1.0935	1.365	up
Q99LD8 (protein, UniProt Q99LD8 1-285, looked up, full-length) MGTPGEGLGRCSHALIRGVPESLASGEGAGAGLPALDLAKAQREHGVLGGKLRQRLGLQLLELPPEESLPLGPLLGDTAVIQGDTALITRPWSPARRPEVDGVRKALQDLGLRIVEMGDENATLDGTDVLFTGREFFVGLSKWTNHRGAEIVADTFRDFAVSTVPVSGSSHLRGLCGMGGPRTVVAGSSEAAQKAVRAMAALTDHPYASLTLPDDAASDCLFLRPGLPGATPFLLHRGGGDLPNSQEALQKLSDVTLVPVSCSELEKAGAGLSSLCLVLSTRPHC	1.289	1.314	1.577	1.1265	1.14	up
Q99LZ3 (protein, UniProt Q99LZ3 1-223, looked up, full-length) MTEVLDLHGQDSDGGSEEMVLTPAELIEKLEQAWMNEKFAPELLESKAEIVECVMEQLEHMEENLRRAKKGDLKVSIHRMEMERIRYVLSSYLRCRLMKIEKFFPHILEKEKVRSEGEPSSLSPEEFVFAKEYMDHTETHFKNVALKHMPPNLQKVDLLRAVPKPDLDSYVFLRVKERQENILVEPEADEQRDYVIDLEVGSQHLIRYKTIAPLVASGAVQLI	−1.212	−1.61	−1.013	−0.7435	−1.481	down
Q99M01 (protein, UniProt Q99M01 1-451, looked up, full-length) MVCLALVRAAYEHIYLVRKVSHACRCHQHRAWSSKPAASQSAVQGAPGSVLEILGKSYPQDDHTNLTQKVLSKVGRNLHNQKFHPLWLIKERVKEHFYQQYMVRSRTPLFSVYDQLPPVVTTWQNFDSLLIPADHPSRKKGDNYYLNRAHMLRAHTSAHQWDLLHAGLNAFLVVGDVYRRDQIDCQHYPVFHQLEGVRLFSKHELFAGVKDGESLQLFEEGSRSAHKQETHTMEAVKLVEFDLKQVLTRLVTHLFGDGLEVRWVDCYFPFTHPSFEMEINFRGEWLEVLGCGVMEQQLVNSAGAQDRIGWAFGLGLERLAMVLYDIPDIRLFWSEDERFLKQFLLSDINQSVKFQPLSKYPAVFNDISFWLPSENYTENDFYDIVRTVGGDLVEKVDLIDKFEHPKTHRTSHCYRITYRHMERTLSQREVGNVHQAVQEAAVQLLGVEGRF	−1.171	−0.869	−0.578	−1.7495	−1.486	down

Source: patent US11994512B2, “Single-cell genomic methods to generate ex vivo cell systems that recapitulate in vivo biology with improved fidelity” (Massachusetts Institute of Technology, priority 2018, dated 2024)
